Patent US11491212

B1: FIXa Y155F/K228N/K247N/N249S (protein)
chain 1: not shown
chain 2: not shown
B2: FIXa R318Y/R338E/T412A (protein)
chain 1: not shown
chain 2: not shown
B3: FIXa R318Y/R338E/R403E/E410N/T412A (protein)
chain 1: not shown
chain 2: not shown
B4: FIXa R318Y/R338E/R403E/E410N/T412V (protein)
chain 1: not shown
chain 2: not shown
B5: FIXa K228N/K247N/N249S/R318Y/R338E/R403E/E410N (protein)
chain 1: not shown
chain 2: not shown

These proteins were tested against Factor X (FX), P00742.
Chain of Factor X (FX), P00742 (P00742 whole entry, looked up): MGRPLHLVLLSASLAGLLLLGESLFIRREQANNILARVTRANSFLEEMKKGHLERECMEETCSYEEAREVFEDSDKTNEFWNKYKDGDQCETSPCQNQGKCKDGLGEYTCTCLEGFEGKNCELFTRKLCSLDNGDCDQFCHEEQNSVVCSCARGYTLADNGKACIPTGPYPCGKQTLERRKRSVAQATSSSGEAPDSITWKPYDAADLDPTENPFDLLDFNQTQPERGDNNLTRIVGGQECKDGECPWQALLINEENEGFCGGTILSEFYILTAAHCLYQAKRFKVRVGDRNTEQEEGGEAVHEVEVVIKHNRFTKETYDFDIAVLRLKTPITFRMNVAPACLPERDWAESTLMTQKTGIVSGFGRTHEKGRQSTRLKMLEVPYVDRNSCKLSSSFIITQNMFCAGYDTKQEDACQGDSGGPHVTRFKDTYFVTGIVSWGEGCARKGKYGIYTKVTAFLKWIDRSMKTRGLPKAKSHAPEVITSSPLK
With B1 the kcat (Catalytic activity of FIXa variants) was 4.3 s⁻¹.
B2 was tested, and the kcat (Catalytic activity of FIXa variants) was 7 s⁻¹.
B3 was tested, and the kcat (Catalytic activity of FIXa variants) was 8.4 s⁻¹.
With B4 the kcat (Catalytic activity of FIXa variants) was 7.9 s⁻¹.
B5 gave a kcat (Catalytic activity of FIXa variants) of 6.1 s⁻¹.
